This note sets out measurements from patent US20220153832A1 (PIONYR IMMUNOTHERAPEUTICS, published 2022).

Positions count from the first letter of the chain named.

Test [1] has as its target T1, Human Macrophage Receptor with Collagenous Structure (MARCO), full length, on cells (human, UniProt Q9UEW3 1-520).
T1 construct: the cell type is named under assay; also called huMARCO; HuMARCO
T1 sequence: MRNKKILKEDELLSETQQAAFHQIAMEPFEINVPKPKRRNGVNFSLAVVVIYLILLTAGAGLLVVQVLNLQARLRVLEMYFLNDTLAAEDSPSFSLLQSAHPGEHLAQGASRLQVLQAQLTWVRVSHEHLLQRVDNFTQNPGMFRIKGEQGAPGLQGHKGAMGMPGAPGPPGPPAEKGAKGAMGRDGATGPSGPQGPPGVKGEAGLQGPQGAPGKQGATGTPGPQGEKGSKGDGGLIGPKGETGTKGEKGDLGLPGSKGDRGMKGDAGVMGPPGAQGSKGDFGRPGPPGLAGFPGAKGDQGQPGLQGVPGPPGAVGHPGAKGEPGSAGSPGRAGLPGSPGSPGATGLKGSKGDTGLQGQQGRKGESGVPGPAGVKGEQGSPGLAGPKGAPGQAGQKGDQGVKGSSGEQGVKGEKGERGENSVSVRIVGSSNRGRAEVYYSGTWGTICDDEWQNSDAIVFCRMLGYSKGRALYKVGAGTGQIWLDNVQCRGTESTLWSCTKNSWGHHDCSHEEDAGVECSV
The test is described as follows: cell-based competition with AF488 E. coli binding to cells expressing MARCO. On the procedure: Zombie NIR viability dye (BioLegend), prepared by diluting the stock 1000-fold in D-PBS, was added to the cells and incubated for 10 min at RT in the dark. The reaction was quenched by adding 1 m of 4× Staining buffer (2% FBS in DBPS containing Ca2+), followed by centrifugation at 400×g for 5 min at 4° C. Cells were then plated in V-shaped 96 well plates at a density of 100,000 cells. A488-fluorescently labeled bacteria (E. coli from Invitrogen) was added at 10 μg/ml with the anti-human MARCO antibodies of interest for a 30 min incubation at 37 C. Plates were then washed twice followed by resuspension in 100 ul of staining buffer for acquisition on the flow cytometer (Attune NxT, Life Technologies). Flow cytometry data were analyzed using FlowJo software (version 10.6.1) and data were processed and further analyzed in Microsoft Excel and GraphPad Prism software (version 8).

The target of test [2] is T2, Cynomolgus MARCO, full length, on cells (cynomolgus, UniProt A0A2K5X0Z2 1-519).
T2 construct: whole, on cells; also called cyno MARCO; CyMARCO
T2 sequence: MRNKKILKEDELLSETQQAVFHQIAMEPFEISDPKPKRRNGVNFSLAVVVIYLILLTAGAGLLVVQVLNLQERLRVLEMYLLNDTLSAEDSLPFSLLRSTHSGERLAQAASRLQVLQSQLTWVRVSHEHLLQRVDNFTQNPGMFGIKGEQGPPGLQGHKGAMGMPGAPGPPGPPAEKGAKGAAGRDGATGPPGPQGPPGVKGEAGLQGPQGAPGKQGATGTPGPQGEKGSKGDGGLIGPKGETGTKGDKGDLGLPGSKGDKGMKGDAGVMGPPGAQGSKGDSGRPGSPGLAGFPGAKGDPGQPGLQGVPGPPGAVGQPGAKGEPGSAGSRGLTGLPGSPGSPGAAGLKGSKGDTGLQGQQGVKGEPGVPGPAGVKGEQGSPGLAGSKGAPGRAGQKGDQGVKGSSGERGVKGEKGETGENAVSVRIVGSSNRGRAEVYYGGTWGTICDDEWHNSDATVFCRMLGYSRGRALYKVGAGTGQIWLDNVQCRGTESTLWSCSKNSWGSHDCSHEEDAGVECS
Put plainly: flow cytometry, 293T CyMARCO cells. Summed up: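 Binding to HEK293T cells expressing human or cynomolgus MARCO was measured by flow cytometry at 100,000 cells/well after Zombie NIR viability staining. Antibodies started at 100 nM in an 8-point three-fold dilution in D-PBS/2% FBS/2 mM EDTA for 1 hr on ice, then APC goat anti-mouse IgG for 30 min on ice. Cells were acquired on an Attune NxT. Geometric mean fluorescence intensities were analysed in FlowJo and Prism.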
On the technique in general: Flow cytometry measures light scatter and fluorescence of single cells or particles in a stream.

In test [3] the target is T2, Cynomolgus MARCO, full length, on cells. The test is described as follows: flow cytometry, 293T (CyMARCO). On the procedure: Supernatants were removed and cell pellets were resuspended in Ca²⁺+ and Mg²⁺+ Dulbecco's phosphate-buffered saline (D-PBS) at 1×10⁶ cells/ml. 100,000 cells/well were plated onto U-bottom 96-well plates for staining and all centrifugation steps were performed at 1500 rpm at 4° C. for 5 min and samples were kept protected from light throughout the protocol. Cells were pelleted and resuspended in 100 μl of Zombie NIR viability dye (BioLegend) prepared by diluting Zombie NIR dimethyl sulfoxide (DMSO) stock 1000-fold in D-PBS. Cells were stained by incubation for 10 min at room temperature (RT) in the dark, followed by quenching the staining reaction with the addition of 100 μl of Staining Medium (D-PBS containing 2% FBS and 2 mM ethylenediaminetetraacetic acid (EDTA). Cells were pelleted and resuspended in 100 μl of the different antibodies and hybridomas supernatants needed for screening and corresponding isotype controls in freshly prepared staining medium, such as PI-M014 and mIgG2b isotype. All mAbs were tested at the final top concentration of 100 nM (15 μg/ml) followed by an 8-point three-fold serial dilution, including 0 mg/ml control. Staining was carried out for 1 hour (hr) on ice, followed by 2 washes in Staining Medium. Cells were then pelleted and resuspended in 100 μl of allophycocyanin (APC)-conjugated goat anti-mouse IgG (Fc-specific) secondary antibody, prepared by 500-fold dilution of the antibody stocks in Staining Medium, and incubated for 30 min on ice. […] Flow cytometry data were analyzed using FlowJo software (version 10.6.1) and data were processed and further analyzed in Microsoft Excel and GraphPad Prism software (version 8). Half-maximal effective concentrations (EC₅₀) were calculated based on geometric mean fluorescence intensities (gMFI). In case when the plates were not able to be analyzed on the cytometer, cells were pelleted after the washes and fixed in 100 μl of 2% paraformaldehyde (PFA), prepared by diluting the 16% (w/v) stock (Thermo Fisher) in DPBS, for 15 min at RT. […]

B1: PI-3010-AB (antibody, human IgG1, kappa)
heavy: not shown
light: DIQMTQSPASLSTSLGETVSIECLASEGISNDLAWYQQKSGKSPQLLIYAASRLQDGVPSRFSGSGSGTRYSLKISGMQPEDEADYFCQQSYKYPLTFGSGTKLEIKRTVAAPSVFIFPPSDEQLKSGTASVVCLLNNFYPREAKVQWKVDNALQSGNSQESVTEQDSKDSTYSLSSTLTLSKADYEKHKVYACEVTHQGLSSPVTKSFNRGEC
In the case of B1, a half-maximal response in test [1] (EC50) required 0.44 nM.

B2: PI-3015-AB (antibody, human IgG1, kappa)
heavy: not shown
light: DIQMTQSPSSLSASVGDRVTITCRASEGISNDLAWYQQKPGKAPKLLIYAASRLQSGVPSRFSGSGSGTDYTLTISSMQPEDFATYYCQQSYKYPLTFGQGTKLEIKRTVAAPSVFIFPPSDEQLKSGTASVVCLLNNFYPREAKVQWKVDNALQSGNSQESVTEQDSKDSTYSLSSTLTLSKADYEKHKVYACEVTHQGLSSPVTKSFNRGEC
B2: in test [1], the concentration for a half-maximal effect (EC50) (in general, the concentration that produces a half-maximal response) is 0.5 nM.

B3: PI-HX-3021 (antibody, V domains shown)
VH: QVRLVQSGTALVRPGASVRMSCTASGYSFTDYWVSWVKQSHGQSLEWIGEIYPNSGTTNFNEKFEGKATLTVDKSTSTAYMELSRLTSEDSAIYYCTGEGTFDYWGQGVMVTVSS
VL: EIVLTQSPTTMAASPGEKVTITCRPSSSLSNMHWFQQKSGTSPKPWIYDTSKLASGVPDRFSGSGSGTSYSLTISSMEAEDAATYYCLQRSSYPPTFGAGTKLELK
notes: Rat IgG2a hybridoma antibody; Not the effector dead PI-3021; also called PI-3007 (name of the recombinant form)
On to B3, for which, in test [2], the binding result is given as “no binding”.

B4: PI-HX-3016 (antibody, rat IgG1, V domains shown)
VH: EVQLVESGGGLVKPGASLKLSCVASGFTFSDDWMNWVRQTPGKAMEWIGDIKYDGSYTNYVPSLKNRLTISRDNAKNTLYLQMTNVRSEDTATYYCTSGGVFDYWGQGVMVTVSS
VL: B3 VL with T5S, P25A, L29V, N31Y, S92G, L105V
notes: Rat IgG1 hybridoma antibody
On to B4, for which, in test [2], the binding result is recorded as “no binding”.

B5: PI-HX-3031 (antibody)
heavy: QVQLKESGPGLVQPSQTLSLTCTVSGFSLTSYHVSWVRQPPGKGLEWMGAIWTGGSIAYNSLLKSRLSISRDTSKSQVFLKMNSLQTEDTATYYCARDLSDYYSSYTSFDYWGQGVMVTVSTAETTAPSVYPLAPGTALKSNSMVTLGCLVKGYFPEPVTVTWNSGALSSGVHTFPAVLQSGLYTLTSSVTVPSSTWSSQAVTCNVAHPASSTKVDKKIVPRECNPCGCTGSEVSSVFIFPPKTKDVLTITLTPKVTCVVVDISQNDPEVRFSWFIDDVEVHTAQTHAPEKQSNSTLRSVSELPIVHRDWLNGKTFKCKVNSGAFPAPIEKSISKPEGTPRGPQVYTMAPPKEEMTQSQVSITCMVKGFYPPDIYTEWKMNGQPQENYKNTPPTMDTDGSYFLYSKLNVKKETWQQGNTFTCSVLHEGLHNHHTEKSLSHSP
light: DIQMTQSPASLSTSLGETVSIECLASEGISNDLAWYQQKSGKSPQLLIYAASRLQDGVPSRFSGSGSGTRYSLKISGMQPEDEADYFCQQSYKYPLTFGSGTKLEIKRADAAPTVSIFPPSTEQLATGGASVVCLMNNFYPRDISVKWKIDGTERRDGVLDSVTDQDSKDSTYSMSSTLSLTKADYESHNLYTCEVVHKTSSSPVVKSFNRNEC
notes: Parental rat hybridoma, rat IgG2a
In test [3], B5 returned a concentration giving a half-maximal response (EC50) of 0.046 nM.

B6: PI-HX-3043 (antibody, rat IgG2a)
heavy: QVNLLQSRAALVKPGASVKLSCKASGYTFTDYYLHWVKQSHAKSLEWIGYINPNNAYTSYNEKFKSKATLTVDKSTNTAYMELSRLTSADSATYYCARDTTDYYNLHFAYWGQGTLVTVSSAETTAPSVYPLAPGTALKSNSMVTLGCLVKGYFPEPVTVTWNSGALSSGVHTFPAVLQSGLYTLTSSVTVPSSTWSSQAVTCNVAHPASSTKVDKKIVPRECNPCGCTGSEVSSVFIFPPKTKDVLTITLTPKVTCVVVDISQNDPEVRFSWFIDDVEVHTAQTHAPEKQSNSTLRSVSELPIVHRDWLNGKTFKCKVNSGAFPAPIEKSISKPEGTPRGPQVYTMAPPKEEMTQSQVSITCMVKGFYPPDIYTEWKMNGQPQENYKNTPPTMDTDGSYFLYSKLNVKKETWQQGNTFTCSVLHEGLHNHHTEKSLSHSP
light: B5 light with T13A, A25T, A50D, Q55E, P80T
notes: as for B5
The molecule B6 registered an EC50 in test [3] of 0.067 nM.
